Laboratory results taken from patent US10772928B2, “Modulation and detection of a neuronal alternative splicing regulatory network for treatment and diagnosis of neurological disorders” (The Governing Council of the University of Toronto, priority 2014, dated 2020).

Molecular target: T1, nSR100 (Mus musculus, UniProt Q8BKA3)
T1 construct: host or cells: mouse N2A cells
T1 sequence (Q8BKA3 1-608): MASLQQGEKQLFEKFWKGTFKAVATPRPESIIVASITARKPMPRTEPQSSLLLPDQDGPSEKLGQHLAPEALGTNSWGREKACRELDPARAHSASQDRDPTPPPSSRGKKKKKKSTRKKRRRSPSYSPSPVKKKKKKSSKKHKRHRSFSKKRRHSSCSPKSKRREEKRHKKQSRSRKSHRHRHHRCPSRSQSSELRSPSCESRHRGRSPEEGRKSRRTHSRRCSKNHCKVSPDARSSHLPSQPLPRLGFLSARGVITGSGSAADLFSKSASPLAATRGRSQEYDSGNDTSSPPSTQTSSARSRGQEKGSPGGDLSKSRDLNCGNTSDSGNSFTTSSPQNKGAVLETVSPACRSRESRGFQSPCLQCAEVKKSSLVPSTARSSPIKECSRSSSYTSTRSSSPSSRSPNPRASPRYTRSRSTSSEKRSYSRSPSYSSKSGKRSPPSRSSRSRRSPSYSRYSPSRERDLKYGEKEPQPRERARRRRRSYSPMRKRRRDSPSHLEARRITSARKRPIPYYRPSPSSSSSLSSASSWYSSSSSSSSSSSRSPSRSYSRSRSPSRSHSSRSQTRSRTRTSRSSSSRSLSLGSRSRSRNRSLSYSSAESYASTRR
Assay: AP-MS nSR100 interaction partners from mouse N2A cells (Table 5)
Type: binding
Conditions: for AvgP (average of the SAINT scores) / MaxP (maximal SAINT score): bait Srrm4; for FoldChange between the prey Avg spectra of the bait and control purifications: bait Srrm4, 0.1 added to prevent division by 0; for AvgSpec (average number of spectra per replicate): bait Srrm4, 2 replicates; for Spectra (number of spectra for the prey in the purification of the bait): AP-MS; for SpecSum: bait Srrm4, sum of spectra over 2 replicates

[1] = bait Srrm4, biological replicate 1 (first number of the cell)
[2] = bait Srrm4, biological replicate 2 (second number of the cell)

Text: By applying affinity purification coupled to mass-spectrometry (AP-MS), several interaction nSR100 partner proteins were detected that provide insight into mechanisms of post-translational regulation of nSR100 levels.

B1: Prpf19 (protein, UniProt Q99KP6 2-504, looked up)
Pre-mRNA-processing factor 19: SLICSISNEVPEHPCVSPVSNHVYERRLIEKYIAENGTDPINNQPLSEEQLIDIKVAHPIRPKPPSATSIPAILKALQDEWDAVMLHSFTLRQQLQTTRQELSHALYQHDAACRVIARLTKEVTAAREALATLKPQAGLIVPQAVPSSQPSVVGAGEPMDLGELVGMTPEIIQKLQDKATVLTTERKKRGKTVPEELVKPEELSKYRQVASHVGLHSASIPGILALDLCPSDTNKILTGGADKNVVVFDKSTEQILATLKGHTKKVTSVVFHPSQELVFSASPDATIRIWSVPNTSCVQVVRAHESAVTGLSLHATGDYLLSSSDDQYWAFSDIQTGRVLTKVTDETSGCSLTCAQFHPDGLIFGTGTMDSQIKIWDLKERTNVANFPGHSGPITSIAFSENGYYLATAADDSSVKLWDLRKLKNFKTLQLDNNFEVKSLIFDQSGTYLALGGTDVQIYICKQWTEILHFTEHSGLTTGVAFGHHAKFIASTGMDRSLKFYSL
**Q.** For B1, which “AvgP (average of the SAINT scores)” value is on record?
**A.** 0.91

**Q.** And the “MaxP (maximal SAINT score)” value?
**A.** 1

**Q.** What about the “FoldChange between the prey Avg spectra of the bait and control purifications” value (“FoldChange between the prey Avg spectra” for short) of the same molecule?
**A.** 5.71

**Q.** What about the “AvgSpec (average number of spectra per replicate)” value of the same molecule?
**A.** 20

**Q.** What about the “Spectra (number of spectra for the prey in the purification of the bait)” value [1] of the same molecule?
**A.** 11

**Q.** And the “Spectra (number of spectra for the prey in the purification of the bait)” value [2]?
**A.** 29

**Q.** What about the SpecSum of the same molecule?
**A.** 40

B2: Crnkl1 (protein, UniProt P63154 1-690, looked up)
Crooked neck-like protein 1: MAASTAAGKQRIPKVAKVKNKAPAEVQITAEQLLREAKERELELLPPPPQQKITDEEELNDYKLRKRKTFEDNIRKNRTVISNWIKYAQWEESLKEIQRARSIYERALDVDYRNITLWLKYAEMEMKNRQVNHARNIWDRAITTLPRVNQFWYKYTYMEEMLGNVAGARQVFERWMEWQPEEQAWHSYINFELRYKEVERARTIYERFVLVHPAVKNWIKYARFEEKHAYFAHARKVYERAVEFFGDEHMDEHLYVAFAKFEENQKEFERVRVIYKYALDRISKQEAQELFKNYTIFEKKFGDRRGIEDIIVSKRRFQYEEEVKANPHNYDAWFDYLRLVESDAEADTVREVYERAIANVPPIQEKRHWKRYIYLWVNYALYEELEAKDPERTRQVYQASLELIPHKKFTFAKMWLYYAQFEIRQKNLPFARRALGTSIGKCPKNKLFKGYIELELQLREFDRCRKLYEKFLEFGPENCTSWIKFAELETILGDIERARAIYELAISQPRLDMPEVLWKSYIDFEIEQEETERTRNLYRQLLQRTQHVKVWISFAQFELSSGKEGSVAKCRQIYEEANKTMRNCEEKEERLMLLESWRSFEDEFGTVSDKERVDKLMPEKVKKRRKVQADDGSDAGWEEYYDYIFPEDAANQPNLKLLAMAKLWKKQQQEREAAEQDPDKDIDESESSSF
**Q.** B2 was tested. Which “AvgP (average of the SAINT scores)” value did it give?
**A.** 0.95

**Q.** And the “MaxP (maximal SAINT score)” value?
**A.** 0.95

**Q.** What about the “FoldChange between the prey Avg spectra” value of the same molecule?
**A.** 20

**Q.** What about the “AvgSpec (average number of spectra per replicate)” value of the same molecule?
**A.** 2

**Q.** And the “Spectra (number of spectra for the prey in the purification of the bait)” value [1]?
**A.** 2|2

**Q.** What about the “Spectra (number of spectra for the prey in the purification of the bait)” value [2] of the same molecule?
**A.** 2|2

**Q.** And the SpecSum?
**A.** 4

B3: Cdk11b (protein, UniProt P24788 1-784, looked up)
Cyclin-dependent kinase 11B: MGDEKDSWKVKTLDEILQEKKRRKEQEEKAEIKRLKNSDDRDSKRDSLEEGELRDHRMEITIRNSPYRREDSMEDRGEEDDSLAIKPPQQMSRKEKAHHRKDEKRKEKRRHRSHSAEGGKHARVKEKEREHERRKRHREEQDKARREWERQKRREMAREHSRRERDRLEQLERKRERERKLREQQKEQREQKERERRAEERRKEREARREVSAHHRTMREEYSDKGKVGHWSRSPLRPPRERFEMGDNRKPVKEEKVEERDLLSDLQDISDSERKTSSAESSSAESGSGSEEEEEEEEEEEEEEGSTSEESEEEEEEEEEEEEEETGSNSEEASEQSAEEVSDEEMSEDEDRENENHILVVPESRFDRDSGDSEEGEEEVGEGTPQSSAPTEGDYVPDSPALSPIELKQELPKYLPALQGCRSVEEFQCLNRIEEGTYGVVYRAKDKKTDEIVALKRLKMEKEKEGFPITSLREINTILKAQHPNIVTVREIVVGSNMDKIYIVMNYVEHDLKSLMETMKQPFLPGEVKTLMIQLLSGVKHLHDNWILHRDLKTSNLLLSHAGILKVGDFGLAREYGSPLKAYTPVVVTLWYRAPELLLGAKEYSTAVDMWSVGCIFGELLTQKPLFPGKSDIDQINKIFKDLGTPSEKIWPGYNDLPAVKKMTFSEYPYNNLRKRFGALLSDQGFDLMNKFLTYYPGRRINAEDGLKHEYFRETPLPIDPSMFPTWPAKSEQQRVKRGTSPRPPEGGLGYSQLGDDDLKETGFHLTTTNQGASAAGPGFSLKF
**Q.** With B3 as the molecule, how does the “AvgP (average of the SAINT scores)” value read?
**A.** 0.9

**Q.** And the “MaxP (maximal SAINT score)” value?
**A.** 0.98

**Q.** And the “FoldChange between the prey Avg spectra” value?
**A.** 3.43

**Q.** And the “AvgSpec (average number of spectra per replicate)” value?
**A.** 12

**Q.** What about the “Spectra (number of spectra for the prey in the purification of the bait)” value [1] of the same molecule?
**A.** 13

**Q.** And the “Spectra (number of spectra for the prey in the purification of the bait)” value [2]?
**A.** 11

**Q.** What about the SpecSum of the same molecule?
**A.** 24

B4: Csnk1e (protein, UniProt Q9JMK2 1-416, looked up)
Casein kinase I isoform …: MELRVGNKYRLGRKIGSGSFGDIYLGANIASGEEVAIKLECVKTKHPQLHIESKFYKMMQGGVGIPSIKWCGAEGDYNVMVMELLGPSLEDLFNFCSRKFSLKTVLLLADQMISRIEYIHSKNFIHRDVKPDNFLMGLGKKGNLVYIIDFGLAKKYRDARTHQHIPYRENKNLTGTARYASINTHLGIEQSRRDDLESLGYVLMYFNLGSLPWQGLKAATKRQKYERISEKKMSTPIEVLCKGYPSEFSTYLNFCRSLRFDDKPDYSYLRQLFRNLFHRQGFSYDYVFDWNMLKFGAARNPEDVDRERREHEREERMGQLRGSATRALPPGPPTGATANRLRSAAEPVASTPASRIQQTGNTSPRAISRADRERKVSMRLHRGAPANVSSSDLTGRQEVSRLAASQTSVPFDHLGK
**Q.** With B4 as the molecule, how does the “AvgP (average of the SAINT scores)” value read?
**A.** 0.91

**Q.** And the “MaxP (maximal SAINT score)” value?
**A.** 0.96

**Q.** What about the “FoldChange between the prey Avg spectra” value of the same molecule?
**A.** 7

**Q.** What about the “AvgSpec (average number of spectra per replicate)” value of the same molecule?
**A.** 7

**Q.** What about the “Spectra (number of spectra for the prey in the purification of the bait)” value [1] of the same molecule?
**A.** 6

**Q.** What about the “Spectra (number of spectra for the prey in the purification of the bait)” value [2] of the same molecule?
**A.** 8

**Q.** What about the SpecSum of the same molecule?
**A.** 14

B5: Smc3 (protein, UniProt Q9CW03 1-1217, looked up)
Structural maintenance of …: MYIKQVIIQGFRSYRDQTIVDPFSSKHNVIVGRNGSGKSNFFYAIQFVLSDEFSHLRPEQRLALLHEGTGPRVISAFVEIIFDNSDNRLPIDKEEVSLRRVIGAKKDQYFLDKKMVTKNDVMNLLESAGFSRSNPYYIVKQGKINQMATAPDSQRLKLLREVAGTRVYDERKEESISLMKETEGKREKINELLKYIEERLHTLEEEKEELAQYQKWDKMRRALEYTIYNQELNETRAKLDELSAKRETSGEKSRQLRDAQQDARDKMEDIERQVRELKTKISAMKEEKEQLSAERQEQIKQRTKLELKAKDLQDELAGNSEQRKRLLKERQKLLEKIEEKQKELAETEPKFNSVKEKEERGIARLAQATQERTDLYAKQGRGSQFTSKEERDKWIKKELKSLDQAINDKKRQIAAIHKDLEDTEANKEKNLEQYNKLDQDLNEVKARVEELDRKYYEVKNKKDELQSERNYLWREENAEQQALAAKREDLEKKQQLLRAATGKAILNGIDSINKVLEHFRRKGINQHVQNGYHGIVMNNFECEPAFYTCVEVTAGNRLFYHIVDSDEVSTKILMEFNKMNLPGEVTFLPLNKLDVRDTAYPETNDAIPMISKLRYNPRFDKAFKHVFGKTLICRSMEVSTQLARAFTMDCITLEGDQVSHRGALTGGYYDTRKSRLELQKDVRKAEEELGELEAKLNENLRRNIERINNEIDQLMNQMQQIETQQRKFKASRDSILSEMKMLKEKRQQSEKTFMPKQRSLQSLEASLHAMESTRESLKAELGTDLLSQLSLEDQKRVDALNDEIRQLQQENRQLLNERIKLEGIITRVETYLNENLRKRLDQVEQELNELRETEGGTVLTATTSELEAINKRVKDTMARSEDLDNSIDKTEAGIKELQKSMERWKNMEKEHMDAINHDTKELEKMTNRQGMLLKKKEECMKKIRELGSLPQEAFEKYQTLSLKQLFRKLEQCNTELKKYSHVNKKALDQFVNFSEQKEKLIKRQEELDRGYKSIMELMNVLELRKYEAIQLTFKQVSKNFSEVFQKLVPGGKATLVMKKGDVEGSQSQDEGEGSGESERGSGSQSSVPSVDQFTGVGIRVSFTGKQGEMREMQQLSGGQKSLVALALIFAIQKCDPAPFYLFDEIDQALDAQHRKAVSDMIMELAVHAQFITTTFRPELLESADKFYGVKFRNKVSHIDVITAEMAKDFVEDDTTHG
**Q.** With B5 as the molecule, how does the “AvgP (average of the SAINT scores)” value read?
**A.** 0.91

**Q.** And the “MaxP (maximal SAINT score)” value?
**A.** 0.96

**Q.** What about the “FoldChange between the prey Avg spectra” value of the same molecule?
**A.** 7

**Q.** And the “AvgSpec (average number of spectra per replicate)” value?
**A.** 7

**Q.** And the “Spectra (number of spectra for the prey in the purification of the bait)” value [1]?
**A.** 6

**Q.** And the “Spectra (number of spectra for the prey in the purification of the bait)” value [2]?
**A.** 8

**Q.** What about the SpecSum of the same molecule?
**A.** 14
